Here are results for three molecules from PMC4052671, “Cloning, expression and characterization of a versatile Baeyer-Villiger monooxygenase from Dietzia sp. D5” (AMB Express, 2014).

One may read the Km as the concentration of substrate that gives half-maximal velocity. For orientation: Vmax means the rate approached at saturating substrate. By kcat is commonly meant the maximal rate divided by the concentration of active sites. Usually kcat/Km stands for the second-order rate constant that governs catalysis at low substrate concentration.

For series [1], the target named is T1, BVMO4 (Dietzia sp. D5, UniProt U5S003, P2A).
T1 construct: full length, 612 residues; His-tagged in pET-22b(+) (NcoI/NotI); E. coli BL21-CodonPlus(DE3)-RP; Ni-NTA; about 75 kDa on SDS-PAGE, predicted 72 kDa; FAD added after purification
The series is described as follows: activity recovery of purified enzyme on FAD addition. Type of series: biochemical. The settings on record: FAD added to 10 μM after Ni-NTA purification; phenylacetone as substrate; pH 7.5.

The test system of series [2] is CC(=O)Cc1ccccc1. The series is described as follows: purified protein. Type of series: biochemical, Dietzia sp. D5. As to conditions: co-substrate NADPH (60 μM in the standard assay), 50 mM sodium phosphate pH 7.5, 10 mM KCl, 25 °C.
Substrate in series [3]: CC1CCCCC1=O
The series is described as follows: purified protein. As to conditions: co-substrate NADPH (60 μM in the standard assay), 50 mM sodium phosphate pH 7.5, 10 mM KCl, 25 °C. Type of series: biochemical, Dietzia sp. D5.

Substrate in series [4]: NC(=O)C1=CN([C@@H]2O[C@H](COP(=O)(O)OP(=O)(O)OC[C@H]3O[C@@H](n4cnc5c(N)ncnc54)[C@H](OP(=O)(O)O)[C@@H]3O)[C@@H](O)[C@H]2O)C=CC1
The series is described as follows: purified protein. Type of series: biochemical, Dietzia sp. D5. The settings on record: NADPH varied, fixed ketone substrate not stated, 50 mM sodium phosphate pH 7.5, 10 mM KCl, 25 °C, varied: cofactor.

As to `Cc1cc2nc3c(=O)[nH]c(=O)nc-3n(C[C@H](O)[C@H](O)[C@H](O)COP(=O)(O)OP(=O)(O)OC[C@H]3O[C@@H](n4cnc5c(N)ncnc54)[C@H](O)[C@@H]3O)c2cc1C` [FAD], in series [1], the “activity recovery of purified enzyme on FAD addition” value is given as “The enzyme lost its activity during the purification process but was recovered upon addition of FAD”.
For BVMO4 (Dietzia sp. D5; P2A), in series [2], the Km was determined as 829 ± 163 µM, the Vmax amounted to 4.74 µM/min, the kcat was 0.634 ± 0.104 s⁻¹ and the kcat/Km amounted to 770 ± 30 M⁻¹ s⁻¹.

B1: BVMO4 (Dietzia sp. D5; P2A) (protein)
chain: MAFTLPESKIAIDIDFDPDHLRQRFEADKQARERKDQLAQFQGLDDVLEVDDSDPFSEPITREPVTEELDALVLGGGFGGLTAGAYLTQNGVENFRLVEYGGDFGGTWYWNRYPGVQCDIESHIYMPLLEETGYVPSQRYADGSEIFEHAQRIGRHYGLYDRTYFQTRATHARWDEQIQRWEVTTDRGDRFVTRVLLRSNGALTKPQLPKVPGIGDFEGKIFHTSRWDYGYTGGSAAGDLAHLRDKRVAVVGTGATGVQVVPYLAQDAKELVVVQRTPSVVQPRNNRKTDPEWVASLTPGWQYERHDNFNGIISGHEVEGNLVDDGWTHLFPELTGQHLVDVPVGELPEGDQALVAELADMNLLMSAHARVDSIVTDPATADGLKPWFGYMCKRPCFNDEYLEAFNRPNVTLAASPAGIDGITSSGIVVAGTHYEVDCIIFATGFETGSGPAGIYGYDVIGREGHSMQEYFSEGARTFHGFFTHGFPNFVELGMSQTAYYVNFVYMLDRKARHAARLVRHLLDSGIGTFEPTAEAEADWVAEVRRSNEPREAYWGACTPGYYNGQGEVSKAVFRDVYNSSEIDFWNMIEAWWNSGRFEGLVFEPARDAVPVA
notes: full length, 612 residues; His-tagged in pET-22b(+) (NcoI/NotI); E. coli BL21-CodonPlus(DE3)-RP; Ni-NTA; about 75 kDa on SDS-PAGE, predicted 72 kDa; FAD added after purification
With B1, in series [3], the Km was determined as 507 ± 142 µM, the Vmax was determined as 3.07 µM/min, the kcat is 0.37 ± 0.095 s⁻¹ and the kcat/Km was 730 ± 20 M⁻¹ s⁻¹. Also, in series [4], the Km is 11 ± 2 µM, the Vmax stood at 4.2 µM/min, the kcat stood at 0.507 ± 0.057 s⁻¹ and the kcat/Km was determined as 45100 ± 1520 M⁻¹ s⁻¹.
